Kd and IC50 data for 35 sequences are collected here from the Immune Epitope Database (IEDB).

A value given as a limit tells only on which side of the number the result lay.

One assay concerns the target HLA-A*68:02. The assay is described as follows: IEDB peptide-MHC binding, purified MHC/competitive/radioactivity; filed as Kd, often an IC50 or EC50 that approximates it; ≥ and ≤ were set here for values at or beyond the usual limits of such assays.
Another assay addresses HLA-A*01:01. The assay is described as above.
The target in assay [1] is HLA-A*26:01. Described as above.
The target in assay [2] is HLA-A*02:01. The assay is described as follows: IEDB peptide-MHC binding, purified MHC/competitive/fluorescence; ≥ and ≤ were set here for values at or beyond the usual limits of such assays.
Assay [3] concerns the target HLA-A*11:01. The assay is described as above.
Assay [4] addresses HLA-A*03:01. Described as above.
A further assay has as its target HLA-B*48:01. The assay can be described thus: IEDB peptide-MHC binding, purified MHC/direct/fluorescence; filed as Kd, often an IC50 or EC50 that approximates it; ≥ and ≤ were set here for values at or beyond the usual limits of such assays.
The next assay deals with HLA-B*35:01. The assay can be described thus: IEDB peptide-MHC binding, purified MHC/competitive/radioactivity; filed as Kd, often an IC50 or EC50 that approximates it; ≥ and ≤ were set here for values at or beyond the usual limits of such assays.
In another assay the target is HLA-B*51:01. The assay is described as above.
Another assay deals with HLA-A*33:01. The description is as above.
The target of assay [5] is HLA-A*02:01. The assay is described as above.
Another assay deals with HLA-A*68:01. Described as above.
The target of a further assay is HLA-A*02:06. The assay is described as above.
A further assay addresses HLA-A*02:02. Described as above.
The next assay addresses HLA-A*31:01. Described as above.
For a further assay, the target named is HLA-B*53:01. Described as above.
A further assay concerns the target HLA-B*07:02. The description is as above.
Assay [6] has as its target HLA-A*11:01. Described as above.
A further assay concerns the target HLA-B*54:01. The assay is described as above.
The target in assay [7] is HLA-A*03:01. The description is as above.
The next assay addresses HLA-A*02:03. Described as above.
The target of another assay is HLA-A*29:02. The assay can be described thus: IEDB peptide-MHC binding, purified MHC/competitive/fluorescence; filed as Kd, often an IC50 or EC50 that approximates it; ≥ and ≤ were set here for values at or beyond the usual limits of such assays.
In the next assay the target is HLA-A*24:02. The assay can be described thus: IEDB peptide-MHC binding, purified MHC/competitive/fluorescence; ≥ and ≤ were set here for values at or beyond the usual limits of such assays. The conditions noted are these: source organism: Zaire ebolavirus.
For a further assay, the target named is HLA-B*08:01. The assay is described as follows: IEDB peptide-MHC binding, purified MHC/direct/fluorescence; filed as Kd, often an IC50 or EC50 that approximates it; ≥ and ≤ were set here for values at or beyond the usual limits of such assays. The conditions noted are these: source organism: Yersinia pestis CA88-4125.
A further assay deals with HLA-B*40:01. Described as above.
In a further assay the target is HLA-B*18:01. The description is as above.
The target in assay [8] is HLA-A*26:01. Described as above. The note with it: source organism: Mammarenavirus amapariense.
Another assay addresses HLA-B*44:02. The assay is described as above. The conditions noted are these: source organism: Influenza A virus (A/chicken/CA/375TR/2002(H6N2)).
Setting [9] is: source organism: Dengue virus 4 Philippines/H241/1956.
Setting [10] is: source organism: Sudan ebolavirus.
Setting [11] is: source organism: Dengue virus 2 Jamaica/1409/1983.
Where [12] appears, read: source organism: Vaccinia virus WR.
[13] abbreviates: source organism: Dengue virus 1 Brazil/97-11/1997.
[14] abbreviates: source organism: Hepacivirus hominis.
Where [15] appears, read: source organism: Trypanosoma cruzi.
[16] abbreviates: source organism: Zaire ebolavirus.
Where [17] appears, read: source organism: Burkholderia ambifaria AMMD.
The mark [18] stands for this setting: source organism: Vaccinia virus Copenhagen.
The mark [19] stands for this setting: source organism: Dengue virus 3 Martinique/1243/1999.
[20] abbreviates: source organism: Francisella tularensis subsp. holarctica LVS.
[21] abbreviates: source organism: Influenza A virus (A/chicken/CA/375TR/2002(H6N2)).

Broadly, the Kd is the equilibrium constant for the complex coming apart. Regarding ETFSMGLLCL, the Kd with HLA-A*68:02 (setting [9]) is 0.00659 µM; with HLA-A*01:01 (setting [9]), 7.33 µM; with HLA-A*26:01 [1] (setting [9]) it was 0.289 µM.
For orientation: IC50 means the concentration needed to halve the response being measured. Take GLSLLQLPR: the IC50 was determined as 16.8 µM with HLA-A*02:01 [2] (setting [10]), 3.53 µM in the assay with HLA-A*11:01 [3] (setting [10]) and 2.19 µM with HLA-A*03:01 [4] (setting [10]).
In the assay with HLA-B*48:01 (source organism: Giardia lamblia ATCC 50803), AEWGWTATM showed a Kd of at least 20 µM.
ETALMVIGM: the figures for the Kd with HLA-A*68:02 (setting [9]) and with HLA-A*26:01 [1] (setting [9]) were 0.0105 µM and 0.308 µM, respectively.
In the assay with HLA-B*48:01 (source organism: Campylobacter jejuni subsp. jejuni 81116), RKNGGNFLL came in with a Kd of 0.145 µM.
LVAFLRFLTI: in the assay with HLA-A*68:02 (setting [11]), the Kd was found to be 0.103 µM.
For AFVRFSTDK, the Kd is at least 33.9 µM with HLA-B*35:01 (setting [12]); at least 77.5 µM in the assay with HLA-B*51:01 (setting [12]); at least 77.7 µM with HLA-A*33:01 (setting [12]); at least 78.1 µM with HLA-A*02:01 [5] (setting [12]); at least 57.7 µM in the assay with HLA-A*68:01 (setting [12]); at least 77.1 µM with HLA-A*02:06 (setting [12]). Also, the Kd is at least 77.8 µM with HLA-A*02:02 (setting [12]); 3.1 µM with HLA-A*31:01 (setting [12]); at least 76.9 µM in the assay with HLA-A*68:02 (setting [12]); at least 78.2 µM with HLA-B*53:01 (setting [12]); at least 77.5 µM with HLA-B*07:02 (setting [12]); 8.6 µM with HLA-A*11:01 [6] (setting [12]). The Kd is at least 78.1 µM in the assay with HLA-B*54:01 (setting [12]), at least 25.4 µM with HLA-A*03:01 [7] (setting [12]) and at least 78.1 µM in the assay with HLA-A*02:03 (setting [12]).
With KFYSKISEY, the IC50 with HLA-A*03:01 [4] (source organism: Human papillomavirus 16) was found to be 3 µM.
As for NLPIYSEEIV, the Kd with HLA-A*68:02 (source organism: Homo sapiens) is 0.982 µM.
Sequence STSDGKHLQ had a Kd with HLA-A*29:02 (source organism: Cryptosporidium parvum Iowa II) of 0.284 µM.
As to MTTEDMLSV, the Kd in the assay with HLA-A*02:06 (setting [13]) was found to be 0.0106 µM; with HLA-A*68:02 (setting [13]) it was 0.0106 µM; with HLA-A*01:01 (setting [13]), 5.06 µM; in the assay with HLA-A*26:01 [1] (setting [13]), 1.26 µM.
Regarding VLSDFRTWL, the Kd with HLA-A*02:01 [5] (setting [14]) is 0.00178 µM; in the assay with HLA-A*02:06 (setting [14]), 0.305 µM; in the assay with HLA-A*02:02 (setting [14]), 0.00172 µM; with HLA-A*68:02 (setting [14]), 5.28 µM; with HLA-A*02:03 (setting [14]), 0.00718 µM.
MTIHFFLNE yielded a Kd with HLA-A*29:02 (source organism: Entamoeba histolytica HM-1:IMSS) of 0.192 µM.
LVGLWGAAAL: the Kd was found to be 0.689 µM with HLA-A*02:01 [5] (setting [15]); 0.397 µM with HLA-A*02:06 (setting [15]); 0.0897 µM with HLA-A*02:02 (setting [15]); 5.25 µM in the assay with HLA-A*68:02 (setting [15]); 0.0959 µM in the assay with HLA-A*02:03 (setting [15]).
As to LLPAVSSGK, the IC50 is at least 73.6 µM with HLA-A*02:01 [2] (setting [16]), at least 79.6 µM with HLA-A*24:02, 3.64 µM in the assay with HLA-A*11:01 [3] (setting [16]) and 1.9 µM with HLA-A*03:01 [4] (setting [16]).
For GSIGGVFTSV, in the assay with HLA-A*68:02 (setting [13]), the Kd worked out at 0.0201 µM.
SMKTRTAWF: in the assay with HLA-B*08:01, the Kd came out at 0.007 µM.
Consider AELHAKGAY, for which the Kd was at least 20 µM with HLA-B*40:01 (setting [17]) and 1.12 µM with HLA-B*18:01 (setting [17]).
STIGYALKH showed a Kd in the assay with HLA-A*29:02 (source organism: Bacillus anthracis str. CDC 684) of 0.0394 µM.
In the case of LMDSIFVST, the Kd was at least 77.4 µM with HLA-B*35:01 (setting [18]); at least 77.5 µM in the assay with HLA-B*51:01 (setting [18]); at least 55.3 µM in the assay with HLA-A*33:01 (setting [18]); at least 77.7 µM with HLA-A*68:01 (setting [18]); 0.0312 µM in the assay with HLA-A*02:06 (setting [18]); 0.000343 µM with HLA-A*02:02 (setting [18]). Also, the Kd was at least 36 µM with HLA-A*31:01 (setting [18]); 1.79 µM with HLA-A*68:02 (setting [18]); at least 78.2 µM with HLA-B*53:01 (setting [18]); at least 77.5 µM with HLA-B*07:02 (setting [18]); at least 77.9 µM in the assay with HLA-A*11:01 [6] (setting [18]); 5.2 µM with HLA-B*54:01 (setting [18]). Moreover, the Kd in the assay with HLA-A*03:01 [7] (setting [18]) is at least 78 µM; with HLA-A*02:03 (setting [18]), 0.232 µM.
With FTILALFLA, the Kd with HLA-A*02:06 (setting [19]) was 0.000746 µM; in the assay with HLA-A*68:02 (setting [19]) it was 0.0355 µM.
DEYQGNHMF had a Kd in the assay with HLA-B*18:01 (source organism: Vibrio parahaemolyticus) of 0.0006 µM.
With HSIENSSVNV, the Kd with HLA-A*68:02 (setting [11]) stood at 0.0309 µM.
As to AEVCAHHLF, the values for the dissociation constant (Kd) in the assay with HLA-B*40:01 (setting [20]) and with HLA-B*18:01 (setting [20]) were 0.0035 µM and 0.0036 µM, respectively.
Turning to FTVVSNGAK, the IC50 turned out to be 1.51 µM with HLA-A*11:01 [3] (setting [16]) and 17.7 µM with HLA-A*03:01 [4] (setting [16]).
On to EVLTLATGPV, for which the Kd in the assay with HLA-A*68:02 (setting [9]) was determined as 0.0235 µM.
Consider NAICSAVPV, for which the Kd with HLA-A*68:02 (setting [13]) was found to be 0.00319 µM.
GLRKRSRRQ showed an IC50 with HLA-A*03:01 [4] (setting [10]) of 46.4 µM.
As for VTGILQLPR, the half-inhibitory concentration (IC50) worked out at 0.36 µM with HLA-A*11:01 [3] (setting [16]) and 6.83 µM with HLA-A*03:01 [4] (setting [16]).
For the sequence KLYKNKSKQ, the IC50 was at least 81.8 µM with HLA-A*02:01 [2] (setting [18]), at least 1360 µM with HLA-A*11:01 [3] (setting [18]) and 3.01 µM with HLA-A*03:01 [4] (setting [18]).
Sequence EKPGNRNPY yielded a Kd with HLA-A*26:01 [8] of 2.78 µM.
In turn, YDPARYPLY yielded a Kd in the assay with HLA-A*29:02 (source organism: Vibrio vulnificus YJ016) of 0.0305 µM.
Regarding REITFHGAK, the Kd with HLA-B*40:01 (setting [21]) is 0.412 µM; in the assay with HLA-B*18:01 (setting [21]), 1.22 µM; with HLA-B*44:02, at least 20 µM.
On to VDFGIIWRY, for which the Kd in the assay with HLA-A*29:02 (source organism: Vibrio cholerae 2740-80) was determined as 0.1 µM.
Turning to LMISGDLPQ, the Kd with HLA-A*29:02 (source organism: Sinorhizobium meliloti 1021) was 0.0373 µM.
